Measurements taken from patent US20130064834A1 (published 2013).

T1: Chimeric protein #1 (mPro-hCat-mC-term-mmh) (mouse; human, UniProt Q80W65 35-694)
T1 chain: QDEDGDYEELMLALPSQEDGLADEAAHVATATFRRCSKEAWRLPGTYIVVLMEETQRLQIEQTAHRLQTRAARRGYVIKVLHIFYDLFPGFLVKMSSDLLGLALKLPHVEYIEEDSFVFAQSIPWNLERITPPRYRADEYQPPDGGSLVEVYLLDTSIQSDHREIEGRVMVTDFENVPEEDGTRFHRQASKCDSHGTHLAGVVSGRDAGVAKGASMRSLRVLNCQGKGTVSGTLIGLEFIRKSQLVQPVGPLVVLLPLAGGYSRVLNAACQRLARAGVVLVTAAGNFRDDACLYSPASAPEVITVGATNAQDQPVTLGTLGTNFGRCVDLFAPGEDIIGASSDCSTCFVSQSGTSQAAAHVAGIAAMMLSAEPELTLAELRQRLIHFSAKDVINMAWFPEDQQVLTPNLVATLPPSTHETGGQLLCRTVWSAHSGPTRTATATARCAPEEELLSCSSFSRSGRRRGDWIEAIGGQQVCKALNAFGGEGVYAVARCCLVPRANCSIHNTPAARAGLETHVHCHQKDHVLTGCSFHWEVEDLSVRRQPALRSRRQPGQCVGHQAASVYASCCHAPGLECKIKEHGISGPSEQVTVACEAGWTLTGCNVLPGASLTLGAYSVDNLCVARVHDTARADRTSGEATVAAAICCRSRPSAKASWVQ

B1: H1M300N (antibody, V domains shown)
VH: EMQLVESGGGLVQPGGSLRLSCAASGFTFSSHWMKWVRQAPGKGLEWVANINQDGSEKYYVDSVKGRFTISRDNAKNSLFLQMNSLRAEDTAVYYCARDIVLMVYDMDYYYYGMDVWGQGTTVTVSS
VL: not shown
notes: Fully human version made in CHO cells
B2: H1H316P (antibody, V domains shown)
VH: EVQLVESGGGLVQPGGSLRLSCAASGFTFNNYAMNWVRQAPGKGLDWVSTISGSGGTTNYADSVKGRFIISRDSSKHTLYLQMNSLRAEDTAVYYCAKDSNWGNFDLWGRGTLVTVSS
VL: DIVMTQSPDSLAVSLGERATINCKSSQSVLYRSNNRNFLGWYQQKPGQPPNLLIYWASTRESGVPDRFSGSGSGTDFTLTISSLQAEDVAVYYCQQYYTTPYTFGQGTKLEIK
notes: Fully human mAb made in CHO cells; also called mAb316P

Key:
Human PCSK9-myc-myc-his [1] = biological target: T2, Human PCSK9-myc-myc-his (human, UniProt Q8NBP7 31-692); test: cell-based or functional assay
Human PCSK9-myc-myc-his [2] = biological target: T2, Human PCSK9-myc-myc-his; test: SPR, mAb amine-coupled, 25C, pH 5.5
Description: (§1) Briefly, mAbs were immobilized onto BIACORE™ CM5 sensor chips via amine coupling.

hPCSK9(D374Y)-mmh [3] = biological target: T3, hPCSK9(D374Y)-mmh (human, UniProt Q8NBP7 31-692); test: SPR, mAb amine-coupled, 25C, pH 5.5
T3 construct: also called hPCSK(D374Y)-mmh
Description: as §1

[4] = biological target: T4, cynomolgus monkey (Macaca fascicularis) PCSK9, myc-myc-his tagged (cynomolgus monkey (Macaca fascicularis), UniProt A8T662 31-692 (Macaca nemestrina entry), limits assumed); test: SPR, mAb amine-coupled, 25C, pH 5.5
T4 construct: also called mfPCSK9-mmh; mfPCSK9
T4 sequence (A8T662 31-692 limits assumed): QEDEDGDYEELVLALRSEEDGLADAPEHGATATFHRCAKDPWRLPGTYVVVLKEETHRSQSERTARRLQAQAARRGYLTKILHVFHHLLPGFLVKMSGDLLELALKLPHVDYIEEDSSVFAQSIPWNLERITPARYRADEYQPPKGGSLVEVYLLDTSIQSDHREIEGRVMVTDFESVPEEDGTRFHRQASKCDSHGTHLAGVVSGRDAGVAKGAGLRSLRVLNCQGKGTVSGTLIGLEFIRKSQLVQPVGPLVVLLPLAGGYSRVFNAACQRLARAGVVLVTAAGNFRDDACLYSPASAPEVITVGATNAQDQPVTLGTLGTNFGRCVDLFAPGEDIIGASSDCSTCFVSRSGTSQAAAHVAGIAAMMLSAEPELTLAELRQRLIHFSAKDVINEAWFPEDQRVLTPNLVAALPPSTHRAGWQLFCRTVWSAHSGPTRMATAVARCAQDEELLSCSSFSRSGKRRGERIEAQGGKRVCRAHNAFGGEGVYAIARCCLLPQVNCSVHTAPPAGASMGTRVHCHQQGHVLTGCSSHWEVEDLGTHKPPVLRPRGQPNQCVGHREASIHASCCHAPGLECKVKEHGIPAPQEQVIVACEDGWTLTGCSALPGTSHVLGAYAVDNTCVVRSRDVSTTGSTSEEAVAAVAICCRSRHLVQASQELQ
Description: as §1

Human PCSK9-myc-myc-his [5] = biological target: T2, Human PCSK9-myc-myc-his; test: SPR, mAb amine-coupled, 25C, pH 7.4
Description: as §1

hPCSK9(D374Y)-mmh [6] = biological target: T3, hPCSK9(D374Y)-mmh; test: SPR, mAb amine-coupled, 25C, pH 7.4
Description: as §1

[7] = biological target: T4, cynomolgus monkey (Macaca fascicularis) …; test: SPR, mAb amine-coupled, 25C, pH 7.4
Description: as §1

Human PCSK9-myc-myc-his [8] = biological target: T2, Human PCSK9-myc-myc-his; test: SPR, mAb amine-coupled, 37C, pH 5.5
Description: as §1

hPCSK9(D374Y)-mmh [9] = biological target: T3, hPCSK9(D374Y)-mmh; test: SPR, mAb amine-coupled, 37C, pH 5.5
Description: as §1

[10] = biological target: T4, cynomolgus monkey (Macaca fascicularis) …; test: SPR, mAb amine-coupled, 37C, pH 5.5
Description: as §1

hPCSK9(D374Y)-mmh [11] = biological target: T3, hPCSK9(D374Y)-mmh; test: competition ELISA vs EGF-A-hFc, pH 5.5
Protocol: (§2) Briefly, hLDLR-ecto, hLDLR EGF-A-hFc or hLDLR EGF-AB-hFc, each at 2 μg/ml, was coated on a 96-well plate in PBS buffer overnight at 4° C., and nonspecific binding sites blocked with BSA. […] The equilibrated sample solutions were transferred to receptor or receptor fragment coated plates.

hPCSK9(D374Y)-mmh [12] = biological target: T3, hPCSK9(D374Y)-mmh; test: competition ELISA vs EGF-A-hFc, pH 7.2
Protocol: as §2

Human PCSK9-myc-myc-his [13] = biological target: T2, Human PCSK9-myc-myc-his; test: competition ELISA vs EGF-AB-hFc, pH 5.5
Protocol: as §2

Human PCSK9-myc-myc-his [14] = biological target: T2, Human PCSK9-myc-myc-his; test: competition ELISA vs hLDLR-ecto, pH 5.5
Protocol: as §2

Human PCSK9-myc-myc-his [15] = biological target: T2, Human PCSK9-myc-myc-his; test: competition ELISA vs hLDLR-ecto, pH 7.2
Protocol: as §2

hPCSK9(D374Y)-mmh [16] = biological target: T3, hPCSK9(D374Y)-mmh; test: competition ELISA vs EGF-AB-hFc, pH 7.2
Protocol: as §2

[17] = biological target: T5, tagged rhesus monkey (Macaca mulata) PCSK9 (rhesus monkey (Macaca mulata), UniProt A8T666 31-692); test: competition ELISA vs hLDLR-ecto, pH 7.2
T5 construct: also called mmPCSK9-mmh; mmPCSK9
T5 sequence (A8T666 31-692 limits assumed): as the sequence (A8T662 31-692 limits assumed) above, with A607P, E639K counted along it
Protocol: as §2

hPCSK9(D374Y)-mmh [18] = biological target: T3, hPCSK9(D374Y)-mmh; test: SPR, mAb captured on anti-human IgG, 25C
Human PCSK9-myc-myc-his [19] = biological target: T2, Human PCSK9-myc-myc-his; test: SPR, mAb captured on anti-hFc, 100 nM antigen
Protocol: (§3) Changes in RU due to the binding of each protein to the mAb surface was determined.

[20] = biological target: T6, mouse PCSK9, myc-myc-his tagged (mouse, UniProt Q80W65 35-694); test: SPR, mAb captured on anti-hFc, 100 nM antigen
T6 construct: also called mPCSK9-mmh; mPCSK9
Protocol: as §3

[21] = biological target: T1, Chimeric protein #1 …; test: SPR, mAb captured on anti-hFc, 100 nM antigen
Protocol: as §3

[22] = biological target: Chimeric protein #2 (hPro-mCat-mC-term-mmh) (human; mouse, UniProt Q80W65 19-694); test: SPR, mAb captured on anti-hFc, 100 nM antigen
Protocol: as §3

Binder | IC50, LDL uptake in HepG2 cells with 50 nM hPCSK9-mmh (Human PCSK9-myc-myc-his [1]) [nM] | Kd (Human PCSK9-myc-myc-his [2]) [nM] | T1/2 (Human PCSK9-myc-myc-his [2]) [min] | Kd (hPCSK9(D374Y)-mmh [3]) [nM] | T1/2 (hPCSK9(D374Y)-mmh [3]) [min] | Kd [4] [nM] | T1/2 [4] [min] | Kd (Human PCSK9-myc-myc-his [5]) [nM] | T1/2 (Human PCSK9-myc-myc-his [5]) [min] | Kd (hPCSK9(D374Y)-mmh [6]) [nM] | T1/2 (hPCSK9(D374Y)-mmh [6]) [min] | Kd [7] [nM] | T1/2 [7] [min] | Kd (Human PCSK9-myc-myc-his [8]) [nM] | T1/2 (Human PCSK9-myc-myc-his [8]) [min] | Kd (hPCSK9(D374Y)-mmh [9]) [nM] | T1/2 (hPCSK9(D374Y)-mmh [9]) [min] | Kd [10] [nM] | T1/2 [10] [min] | IC50 (hPCSK9(D374Y)-mmh [11]) [nM] | other results
B1 | 22.1 | 3.1 | 5 | 9.03 | 3 | 38.5 | 0.4 | 1.1 | 76 | 1.31 | 46 | 2.17 | 31 | 11.9 | 1 | 28 | 1 | 65.2 | 0.1 | 3.46 | IC50 (hPCSK9(D374Y)-mmh [12]): 0.135 nM; IC50 (Human PCSK9-myc-myc-his [13]): 0.447 nM; IC50 (Human PCSK9-myc-myc-his [14]): 1.49 nM; IC50 (Human PCSK9-myc-myc-his [15]): 0.144 nM; IC50 (hPCSK9(D374Y)-mmh [16]): 0.142 nM; IC50 [17]: 0.255 nM; Kd (hPCSK9(D374Y)-mmh [18]): 1.06 nM; T1/2 (hPCSK9(D374Y)-mmh [18]): 49 min; change in RU (Human PCSK9-myc-myc-his [19]): 320 RU; change in RU [20]: 13 RU; change in RU [21]: 243 RU; change in RU [22]: 76 RU
B2 | 21.3 | 0.022 | 39 | 0.166 | 13 | 0.008 | 23 | 1.26 | 36 | 2.49 | 15 | 1.42 | 42 | 0.142 | 11 | 1.56 | 5 | 0.044 | 5 | 1.12 | IC50 (hPCSK9(D374Y)-mmh [12]): 0.203 nM; IC50 (Human PCSK9-myc-myc-his [13]): < 0.125 nM; IC50 (Human PCSK9-myc-myc-his [14]): < 0.125 nM; IC50 (Human PCSK9-myc-myc-his [15]): < 0.125 nM; IC50 (hPCSK9(D374Y)-mmh [16]): 0.139 nM; IC50 [17]: < 0.25 nM; Kd (hPCSK9(D374Y)-mmh [18]): 1.78 nM; T1/2 (hPCSK9(D374Y)-mmh [18]): 14 min; change in RU (Human PCSK9-myc-myc-his [19]): 500 RU; change in RU [20]: 505 RU; change in RU [21]: 529 RU; change in RU [22]: 451 RU
